Source: publication PMC3081413
Blank lines part the entries; values can stand above or below the substance they belong to.

Key:
[1] = molecular target: WT IKKβ (hIKKβ, parent of the purified dimerization mutants of Figure 5c) (human) (UniProt O14920); assay: AUC
GST-IκBα (1–317) = GST-IκBα (1–317) (UniProt P25963)
[2] = molecular target: Full-length hIKKβ (1–756) (human) (UniProt O14920); assay: SEC
[3] = molecular target: hIKKβ KD-ULD-SDD region (1–678) (human) (UniProt O14920); assay: SEC
[4] = molecular target: hIKKβ W655D/L658D, purified (human) (UniProt O14920); assay: AUC

UniProt P25963, sequence (P25963 whole entry): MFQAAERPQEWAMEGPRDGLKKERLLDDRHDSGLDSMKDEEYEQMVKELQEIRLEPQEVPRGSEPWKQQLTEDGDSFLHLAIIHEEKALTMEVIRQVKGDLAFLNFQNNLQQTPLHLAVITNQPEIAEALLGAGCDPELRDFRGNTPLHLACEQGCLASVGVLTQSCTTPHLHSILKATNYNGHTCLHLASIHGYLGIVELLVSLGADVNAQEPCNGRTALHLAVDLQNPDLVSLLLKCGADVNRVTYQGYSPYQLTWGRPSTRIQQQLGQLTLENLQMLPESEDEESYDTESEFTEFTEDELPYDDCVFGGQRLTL

stoichiometry N [1]: 2
Substance: WT IKKβ (hIKKβ, parent of the purified dimerization mutants of Figure 5c) (from UniProt O14920 1-756) (enzyme)

relative Vmax of phosphorylation of full-length IκBα by IKKβ EE (GST-IκBα (1–317)): 502 a.u.
stoichiometry N [2]: 2
Substance: Full-length hIKKβ (1–756) (from UniProt O14920 1-756) (enzyme)

stoichiometry N [3]: 2
Substance: hIKKβ KD-ULD-SDD region (1–678) (from UniProt O14920 1-678) (domain or fragment)

fold weaker dimerization affinity than WT [4]: 167 fold
Substance: hIKKβ W655D/L658D, purified (from UniProt O14920 1-756) (enzyme)
